T1: mCXCL5 displayed on the surface of yeast as N-terminal fusion of Aga2p (mouse)
T1 chain: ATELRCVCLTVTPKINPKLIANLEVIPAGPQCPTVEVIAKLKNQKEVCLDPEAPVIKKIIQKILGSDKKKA

T2: mCXCL3 displayed on the surface of yeast as N-terminal fusion of Aga2p (mouse, UniProt Q6W5C0 32-100)
T2 chain: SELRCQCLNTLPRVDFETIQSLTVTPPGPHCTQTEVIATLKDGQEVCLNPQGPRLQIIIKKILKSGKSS

B1: SA129, mouse serum albumin fused to the CK129 single-chain variable antibody fragment (scFv, V domains shown)
VH: EVQLVESGGGLVQPGGSLRLSCAASGFNISSYGSMHWVRQAPGKGLEWVASIYPYSSSTYYADSVKGRFTISADTSKNTAYLQMNSLRAEDTAVYYCARGYGPWYAYSYFALDYWGQGTLVTVSS
VL: DIQMTQSPSPLSASVGDRVTITCRASQYGGYVAWYQQKPGKAPKLLIYGASLLYSGVPSRFSGGRSGTDFTLTISSLQPEDFATYYCQRGHALITFGQGTKVEIE
B2: SA138, mouse serum albumin fused to the CK138 single-chain variable antibody fragment (scFv, V domains shown)
VH: EVQLVESDGGLVQPGGSLRLSCAASGFNLSYYGMHWVRQAPGKGLEWVAYIASYPGYTSYADSVKGRFTISADTSKNTAYLQMNSLRAEDTAVYYCARSGYSYSPYYSWFSAGMNYWGQGALVTVSS
VL: AIQMTRSPSSLSASVGDRVTITCRASQYHDGSAAWYQQKPGKAPKLLIYGASYLYSGVPSRFSGSRSGTDFTLTISSLQPEDFATYYCQQSSYSLITFGQGTKVEIK
B3: mCXCL2 displayed on the surface of yeast as N-terminal fusion of Aga2p (ligand)
chain: AVVASELRCQCLKTLPRVDFKNIQSLSVTPPGPHCAQTEVIATLKGGQKVCLDPEAPLVQKIIQKILNKGKAN
B4: mCXCL1 displayed on the surface of yeast as N-terminal fusion of Aga2p (ligand)
chain: APIANELRCQCLQTMAGIHLKNIQSLKVLPSGPHCTQTEVIATLKNGREACLDPEAPLVQKIVQKMLKGVPK

Tests used:
Test in all cases: FACS
[1] = target: wild-type hCXCL1 displayed on the surface of yeast as N-terminal fusion of Aga2p (human, UniProt P09341 35-107)
[2] = target: B4
hCXCL2 = target: hCXCL2
hCXCL3 = target: hCXCL3
[3] = target: B3
[4] = target: T1, mCXCL5 displayed on the surface of …
[5] = target: T2, mCXCL3 displayed on the surface of …
hCXCL6 = target: hCXCL6
hCXCL5 = target: hCXCL5
hCXCL8 = target: hCXCL8
[6] = target: SA157*, separate mouse serum albumin fusions of the VL and VH domains of CK157 mixed in equimolar amounts

Chain of wild-type hCXCL1 displayed on the surface of yeast as N-terminal fusion of Aga2p (P09341 35-107): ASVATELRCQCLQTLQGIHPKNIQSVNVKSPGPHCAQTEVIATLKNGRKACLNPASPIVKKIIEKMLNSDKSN

Row | Binder | Kd [2] | Kd (hCXCL2) | Kd (hCXCL3) | Kd [6] | other results
1 | B1 | 2.9 nM | 43.6 nM | 9.2 nM |  | Kd [1]: 2.7 nM
2 | B2 | 29.4 nM | 1590 nM | 836 nM |  | Kd [3]: 16.7 nM; Kd [4]: 357 nM; Kd [5]: 31.1 nM; Kd (hCXCL6): 5000 nM; Kd (hCXCL5): 33.7 nM; Kd (hCXCL8): 14.7 nM
3 | B3 |  |  |  | 591 nM | 
4 | B4 |  |  |  | 666 nM | 

— paper PMC5899157 (2018)
